In the Human Domainome abundance scans (Beltran et al. 2025):
± gives the uncertainty stated by the source.

test: abundance fitness (aPCA) (normalised: wild type 0, dead -1); higher = more abundant; growth selection in yeast, the domain comes from the species named; conditions: Homo sapiens

In order of rising abundance fitness:
1. Scaffold attachment factor B2 N46W, Q14151  -1.28 ± 0.2
2. Scaffold attachment factor B2 G51I, Q14151  -1.25 ± 0.4
3. Scaffold attachment factor B2 D37K, Q14151  -1.19 ± 0.18
4. Scaffold attachment factor B2 L42W, Q14151  -1.1 ± 0.083
5. Scaffold attachment factor B2 A63L, Q14151  -0.984 ± 0.16
6. Scaffold attachment factor B2 G51N, Q14151  -0.833 ± 0.25
7. Scaffold attachment factor B2 L42Q, Q14151  -0.827 ± 0.29
8. Scaffold attachment factor B2 L30W, Q14151  -0.771 ± 0.076
9. Scaffold attachment factor B2 L38D, Q14151  -0.746 ± 0.11
10. Scaffold attachment factor B2 D48Y, Q14151  -0.744 ± 0.14
11. Scaffold attachment factor B2 K53D, Q14151  -0.716 ± 0.22
12. Scaffold attachment factor B2 L47Y, Q14151  -0.714 ± 0.1
13. Scaffold attachment factor B2 G51D, Q14151  -0.7 ± 0.14
14. Scaffold attachment factor B2 L38K, Q14151  -0.694 ± 0.12
15. Scaffold attachment factor B2 L38G, Q14151  -0.664 ± 0.07
16. Scaffold attachment factor B2 R45M, Q14151  -0.66 ± 0.29
17. Scaffold attachment factor B2 M57P, Q14151  -0.66 ± 0.093
18. Scaffold attachment factor B2 G51T, Q14151  -0.633 ± 0.1
19. Scaffold attachment factor B2 R34Y, Q14151  -0.616 ± 0.12
20. Tyrosine-protein kinase Lck I67P, P06239  -0.607 ± 0.15
21. Scaffold attachment factor B2 T49M, Q14151  -0.606 ± 0.12
22. Scaffold attachment factor B2 N52Y, Q14151  -0.587 ± 0.28
23. Scaffold attachment factor B2 R45T, Q14151  -0.576 ± 0.11
24. Scaffold attachment factor B2 G68I, Q14151  -0.551 ± 0.099
25. Scaffold attachment factor B2 L47I, Q14151  -0.534 ± 0.19
26. Scaffold attachment factor B2 D48T, Q14151  -0.526 ± 0.083
27. Scaffold attachment factor B2 D37Q, Q14151  -0.514 ± 0.11
28. Scaffold attachment factor B2 L38S, Q14151  -0.506 ± 0.094
29. Scaffold attachment factor B2 E66K, Q14151  -0.5 ± 0.26
30. Scaffold attachment factor B2 R59V, Q14151  -0.496 ± 0.097
31. Scaffold attachment factor B2 E67L, Q14151  -0.495 ± 0.094
32. Scaffold attachment factor B2 E32P, Q14151  -0.474 ± 0.12
33. Scaffold attachment factor B2 L42T, Q14151  -0.44 ± 0.12
34. Scaffold attachment factor B2 G51E, Q14151  -0.426 ± 0.094
35. Scaffold attachment factor B2 V64N, Q14151  -0.418 ± 0.21
36. Scaffold attachment factor B2 S31C, Q14151  -0.415 ± 0.16
37. Tyrosine-protein kinase Lck P74A, P06239  -0.414 ± 0.1
38. Scaffold attachment factor B2 R45E, Q14151  -0.411 ± 0.097
39. Scaffold attachment factor B2 L60S, Q14151  -0.398 ± 0.16
40. Scaffold attachment factor B2 K53W, Q14151  -0.39 ± 0.11
41. Scaffold attachment factor B2 K62F, Q14151  -0.385 ± 0.1
42. Scaffold attachment factor B2 T27V, Q14151  -0.369 ± 0.15
43. Scaffold attachment factor B2 L56V, Q14151  -0.369 ± 0.082
44. Scaffold attachment factor B2 K53C, Q14151  -0.368 ± 0.081
45. Scaffold attachment factor B2 M57Q, Q14151  -0.364 ± 0.094
46. Scaffold attachment factor B2 N46L, Q14151  -0.355 ± 0.087
47. Scaffold attachment factor B2 V35L, Q14151  -0.353 ± 0.078
48. Scaffold attachment factor B2 V35G, Q14151  -0.351 ± 0.074
49. Scaffold attachment factor B2 K65Y, Q14151  -0.35 ± 0.16
50. Scaffold attachment factor B2 L56D, Q14151  -0.349 ± 0.13
51. Scaffold attachment factor B2 T49P, Q14151  -0.349 ± 0.084
52. Scaffold attachment factor B2 S31M, Q14151  -0.341 ± 0.11
53. Scaffold attachment factor B2 G50Q, Q14151  -0.329 ± 0.12
54. Scaffold attachment factor B2 L60A, Q14151  -0.323 ± 0.094
55. Scaffold attachment factor B2 R59S, Q14151  -0.322 ± 0.087
56. Scaffold attachment factor B2 L33K, Q14151  -0.319 ± 0.11
57. Scaffold attachment factor B2 L56P, Q14151  -0.319 ± 0.13
58. Scaffold attachment factor B2 T49Q, Q14151  -0.286 ± 0.11
59. Scaffold attachment factor B2 L30G, Q14151  -0.281 ± 0.084
60. Scaffold attachment factor B2 V55K, Q14151  -0.267 ± 0.094
61. Scaffold attachment factor B2 G50W, Q14151  -0.26 ± 0.089
62. Scaffold attachment factor B2 E58G, Q14151  -0.26 ± 0.077
63. Scaffold attachment factor B2 L60G, Q14151  -0.25 ± 0.084
64. Scaffold attachment factor B2 E58R, Q14151  -0.247 ± 0.072
65. Scaffold attachment factor B2 E67Q, Q14151  -0.246 ± 0.1
66. Scaffold attachment factor B2 L30E, Q14151  -0.232 ± 0.094
67. Scaffold attachment factor B2 S31T, Q14151  -0.225 ± 0.48
68. Scaffold attachment factor B2 D48S, Q14151  -0.214 ± 0.086
69. Scaffold attachment factor B2 E66I, Q14151  -0.207 ± 0.15
70. Scaffold attachment factor B2 L60K, Q14151  -0.204 ± 0.14
71. Scaffold attachment factor B2 E58N, Q14151  -0.201 ± 0.099
72. Scaffold attachment factor B2 R45L, Q14151  -0.201 ± 0.078
73. Scaffold attachment factor B2 D70H, Q14151  -0.197 ± 0.13
74. Scaffold attachment factor B2 L47P, Q14151  -0.194 ± 0.45
75. Scaffold attachment factor B2 G50L, Q14151  -0.194 ± 0.08
76. Scaffold attachment factor B2 R34K, Q14151  -0.184 ± 0.12
77. Scaffold attachment factor B2 T49A, Q14151  -0.181 ± 0.089
78. Scaffold attachment factor B2 S54L, Q14151  -0.167 ± 0.1
79. Scaffold attachment factor B2 E58M, Q14151  -0.162 ± 0.11
80. Scaffold attachment factor B2 R29Q, Q14151  -0.162 ± 0.1
81. Scaffold attachment factor B2 Q69H, Q14151  -0.143 ± 0.2
82. Scaffold attachment factor B2 R28A, Q14151  -0.139 ± 0.094
83. Scaffold attachment factor B2 L38M, Q14151  -0.139 ± 0.12
84. Scaffold attachment factor B2 K65A, Q14151  -0.138 ± 0.12
85. Scaffold attachment factor B2 E32Q, Q14151  -0.135 ± 0.087
86. Scaffold attachment factor B2 Q69L, Q14151  -0.133 ± 0.11
87. Scaffold attachment factor B2 V64E, Q14151  -0.109 ± 0.098
88. Scaffold attachment factor B2 E66G, Q14151  -0.108 ± 0.083
89. Scaffold attachment factor B2 N46D, Q14151  -0.104 ± 0.12
90. Tyrosine-protein kinase Lck G78D, P06239  -0.088 ± 0.099
91. Scaffold attachment factor B2 L30D, Q14151  -0.086 ± 0.15
92. Scaffold attachment factor B2 K61D, Q14151  -0.082 ± 0.17
93. Scaffold attachment factor B2 T27L, Q14151  -0.074 ± 0.13
94. Scaffold attachment factor B2 K43E, Q14151  -0.071 ± 0.084
95. Scaffold attachment factor B2 K44R, Q14151  -0.06 ± 0.071
96. Scaffold attachment factor B2 R34D, Q14151  -0.055 ± 0.12
97. Tyrosine-protein kinase Lck E83K, P06239  -0.049 ± 0.12
98. Scaffold attachment factor B2 R29K, Q14151  -0.038 ± 0.099
99. Tyrosine-protein kinase Lck H70Y, P06239  -0.029 ± 0.12
100. Scaffold attachment factor B2 G68T, Q14151  -0.026 ± 0.12
101. Scaffold attachment factor B2 V64W, Q14151  -0.025 ± 0.086
102. Scaffold attachment factor B2 R29N, Q14151  -0.016 ± 0.11
103. Scaffold attachment factor B2 S31E, Q14151  -0.01 ± 0.092
104. Scaffold attachment factor B2 S54I, Q14151  -0.003 ± 0.21
105. Scaffold attachment factor B2 R34G, Q14151  0.012 ± 0.077
106. Scaffold attachment factor B2 N46Q, Q14151  0.023 ± 0.14
107. Scaffold attachment factor B2 S54K, Q14151  0.031 ± 0.13
108. Scaffold attachment factor B2 K65D, Q14151  0.036 ± 0.14
109. Scaffold attachment factor B2 R28E, Q14151  0.088 ± 0.1
110. Scaffold attachment factor B2 V35E, Q14151  0.129 ± 0.083
